From patent publication US20080044414A1 (published 2008)
Substitutions are numbered along the chain they refer to. “And” between values parts separate entries of the source, which are not always exact repeats. Equal entries are not always repeated. Where two headings read alike, the source gives them in different places. One block for each binder: values may come before it.

Columns and labels:
human IL-1β [1] = target: T1, human IL-1β (human, UniProt P01584 117-269); assay: cell-based or functional assay
human IL-1β [2] = target: T1, human IL-1β; assay: cell-based or functional assay; remark: listed apart in the source
human IL-1β [3] = target: T1, human IL-1β; assay: KinExA kinetic exclusion assay
From the text: The KINEXA™ device performs a kinetic exclusion assay, and fits the data to various theoretical curves and thus determines KD as well as other properties, such as 95% confidence intervals for KD. The KINEXA™ device is generally more sensitive than other devices (e.g., a BiaCore device) for analysis of affinity characteristics such as dissociation constants and off-rates.

human IL-1β [4] = target: T1, human IL-1β; assay: KinExA kinetic exclusion assay; remark: listed apart in the source
Experimental: KD values represent the binding dissociation constants for the respective antibody-IL-1β complexes. KD was calculated as the ratio of “off rate” (rate of dissociation for the antibody-IL-1β complex) to “on rate” (rate of association for the antibody-IL-1β complex).

human IL-1β [5] = target: T1, human IL-1β; assay: cell-based or functional assay; remark: listed apart in the source
[6] = target: T2, soluble IL-1 receptor type I (IL-1 sRI) (UniProt P14778 18-336); assay: Biacore, AB7 immobilized on CM-5 chip, IL-1 sRI injected
T2 construct: extracellular domain; also called IL-1RI
T2 sequence (looked up): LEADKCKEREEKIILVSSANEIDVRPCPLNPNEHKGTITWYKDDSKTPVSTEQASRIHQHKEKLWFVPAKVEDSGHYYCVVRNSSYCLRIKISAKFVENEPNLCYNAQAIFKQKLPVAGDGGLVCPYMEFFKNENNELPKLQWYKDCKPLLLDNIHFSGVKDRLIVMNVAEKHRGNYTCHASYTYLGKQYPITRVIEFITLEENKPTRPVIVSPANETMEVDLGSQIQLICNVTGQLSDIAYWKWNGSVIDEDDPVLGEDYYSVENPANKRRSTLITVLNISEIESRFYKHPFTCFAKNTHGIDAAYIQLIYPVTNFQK
Experimental: Using HBS-EP (Biacore®, Inc.) as running buffer, the temperature was set to 25° C., the flow rate was set to 10 μL/min, and the flow path was directed to flow cell 2 only. 135 μL of each of NHS and ECD solutions (Biacore®, Inc.) were mixed, and 70 μL of the NHS/ECD solution was immediately injected in the flow path. […] To prepare a reference surface, the flow path was changed to flow cell 1 only. 135 μL of each of NHS and ECD solutions (Biacore®, Inc.) were mixed, and 70 μL of the NHS/ECD solution was immediately injected in the flow path, followed by 70 μL 1M Ethanolamine (Biacore®, Inc.).
The flow rate was set to 10 μL/min. The flow path for the Biacore® instrument was set to flow cells 1 and 2, and reference subtraction of flowcell 2 from flowcell 1 was used to determine a response differential.

guinea pig IL-1β = target: T3, guinea pig IL-1β (guinea pig, UniProt Q9WVG1 115-266, limits assumed); assay: immunoprecipitation with AB7 and protein A-Sepharose from PBMC supernatant, Western blot with AB7
T3 sequence (looked up): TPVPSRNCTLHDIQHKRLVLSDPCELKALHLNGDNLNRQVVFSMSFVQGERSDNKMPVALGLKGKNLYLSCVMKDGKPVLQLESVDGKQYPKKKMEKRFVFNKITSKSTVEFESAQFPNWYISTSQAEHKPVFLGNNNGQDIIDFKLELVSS
Experimental: (§1) Fresh heparanized whole blood from rhesus macaque, cynomolgus monkey, dog, guinea pig and rabbit was obtained from Charles River Labs. The whole blood was separated by Ficoll density gradient centrifugation and peripheral blood mononuclear cells (PBMC's) were isolated. For each species' PBMC, 2.5×10⁵ cells/ml were incubated in peripheral RPMI media with and without 50 ng/ml Lipopolysaccharide LPS (E. Coli 055:B5), and supernatants were collected at 24 hours post-stimulation. LPS is intended to stimulate the production of IL-1β by the PBMC's. […] Human IL-1β (Peprotech) was spiked into RPMI and run as immunoprecipliation/Western blot controls. After centrifugation and washing of the Protein A-Sepharose beads, all samples were loaded onto a SDS-PAGE gel and run at 120V for 1 hour. […] A secondary goat anti-human IgG antibody conjugated with horseradish peroxidase (HRP) was added following wash steps and detection was with one step tetramethyl benzidine (TMB) solution.

rhesus macaque IL-1β = target: T4, rhesus macaque IL-1β (rhesus macaque, UniProt P48090 117-269); assay: cell-based or functional assay
T4 sequence (looked up): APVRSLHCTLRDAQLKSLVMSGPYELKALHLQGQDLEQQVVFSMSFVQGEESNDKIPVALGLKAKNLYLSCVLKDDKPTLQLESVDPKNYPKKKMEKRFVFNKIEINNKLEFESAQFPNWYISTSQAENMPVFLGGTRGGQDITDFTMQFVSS

rabbit IL-1β = target: T5, rabbit IL-1β (rabbit, UniProt P14628 117-268); assay: immunoprecipitation with AB7 from LPS-stimulated PBMC supernatant, Western blot with AB7 (FIG. 16)
T5 sequence (looked up): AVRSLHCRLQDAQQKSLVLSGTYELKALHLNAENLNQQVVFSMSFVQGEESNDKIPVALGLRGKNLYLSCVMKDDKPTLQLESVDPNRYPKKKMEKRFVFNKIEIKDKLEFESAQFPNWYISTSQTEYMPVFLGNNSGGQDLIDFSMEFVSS
Experimental: as §1

dog IL-1β = target: T6, dog IL-1β (dog, UniProt Q28292 115-266); assay: as above
T6 sequence (looked up): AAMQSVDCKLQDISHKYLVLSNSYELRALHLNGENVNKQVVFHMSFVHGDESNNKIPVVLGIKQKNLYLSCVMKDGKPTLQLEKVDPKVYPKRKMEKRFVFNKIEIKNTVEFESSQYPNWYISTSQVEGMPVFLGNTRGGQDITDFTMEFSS
Experimental: as §1

IC50, inhibition of IL-1β stimulated release of IL-6 from human fibroblasts (human IL-1β [1]): 0.0049 nM
IC50, inhibition of IL-1β stimulated release of IL-6 from human MRC5 fibroblasts (human IL-1β [2]): 0.014 nM
Kd (human IL-1β [3]): 0.00024 nM
Kd (human IL-1β [4]): 0.000261 nM
B1: AB5 (antibody, V domains shown)
VH: QVTLKESGPGILKPSQTLSLTCSFSGFSLSTSGMGVGWIRQPSGKGLEWLAHIWWDGDESYNPSLKTQLTISKDTSRNQVFLKITSVDTVDTATYFCARNRYDPPWFVDWGQGTLVTVSS
VL: DIQMTQTTSSLSASLGDRVTISCRASQDISNYLSWYQQKPDGTVKLLIYYTSKLHSGVPSRFSGSGSGTDYSLTISNLEQEDIATYFCLQGKMLPWTFGGGTKLEIK
notes: also called AB5 (invention)

IC50, inhibition of IL-1β stimulated release of IL-6 from human fibroblasts (FIG. 10) (human IL-1β [5]): 0.214 nM
B2: AB3 (antibody, V domains shown)
VH: B1 VH with N100F
VL: B1 VL

IC50, inhibition of IL-1β stimulated release of IL-6 from human fibroblasts (FIG. 10) (human IL-1β [5]): 0.076 nM
B3: AB2 (antibody, V domains shown)
VH: B1 VH with N100V
VL: B1 VL

IC50, inhibition of IL-1β stimulated release of IL-6 from human MRC5 fibroblasts (human IL-1β [2]): 0.017 nM
IC50 of an individual assay, IL-6 release from human fibroblasts (human IL-1β [5]): 0.005 nM and 0.0049 nM
mean IC50, inhibition of IL-1β stimulated release of IL-6 from human fibroblasts (human IL-1β [5]): 0.0089 nM
Kd (human IL-1β [4]): 0.00306 nM
B4: AB-control (antibody, V domains shown)
VH: B1 VH with Q68R, D74N, S86T
VL: B1 VL with S72F
notes: must be checked against the listing

IC50, inhibition of IL-1β stimulated release of IL-6 from human MRC5 fibroblasts (human IL-1β [2]): 0.15 nM
IC50, inhibition of IL-1β stimulated release of IL-6 from human fibroblasts (FIG. 10) (human IL-1β [5]): 0.029 nM
IC50 of an individual assay, IL-6 release from human fibroblasts (human IL-1β [5]): 0.035 nM and 0.03 nM and 0.052 nM
mean IC50, inhibition of IL-1β stimulated release of IL-6 from human fibroblasts (human IL-1β [5]): 0.0667 nM
Kd (human IL-1β [4]): 0.0186 nM
B5: AB1 (antibody, V domains shown)
VH: B1 VH with N100A
VL: B1 VL
notes: also called AB1 (invention)

binding result [6]: no binding (tested: 10 ug/mL)
binding result (guinea pig IL-1β): no binding
mean IC50, inhibition of IL-1β stimulated proliferation of D10.G4.1 cells (10 pg/ml recombinant rhesus IL-1β) (rhesus macaque IL-1β): 0.0027 nM
binding result (rabbit IL-1β): binds
binding result (dog IL-1β): binds
B6: AB7 (antibody, V domains shown)
VH: QVQLQESGPGLVKPSQTLSLTCSFSGFSLSTSGMGVGWIRQPSGKGLEWLAHIWWDGDESYNPSLKSRLTISKDTSKNQVSLKITSVTAADTAVYFCARNRYDPPWFVDWGQGTLVTVSS
VL: DIQMTQSTSSLSASVGDRVTITCRASQDISNYLSWYQQKPGKAVKLLIYYTSKLHSGVPSRFSGSGSGTDYTLTISSLQQEDFATYFCLQGKMLPWTFGQGTKLEIK
notes: Human engineered antibody
